Test results taken from US20140127814.

Tests used:
[1] = test system: CCR5 4-finger ZFN-R (ZFP-FokI) (artificial); experiment: cell_activity; conditions: with ZFN-L and WT CFTR donor in CCR5-expressing HEK293 Flp-In; 17% with CFTR delta508F donor; NHEJ deletions at endogenous CCR5
[2] = test system: CCR5 4-finger ZFN-L (ZFP-FokI) (artificial); experiment: cell_activity; conditions: with ZFN-R and WT CFTR donor in CCR5-expressing HEK293 Flp-In; 17% with CFTR delta508F donor; NHEJ deletions at endogenous CCR5

Sequence	activity (% CCR5-negative cells) [1]	activity (% CCR5-negative cells) [2]
AAACTGCAAAAG (double strand) [CCR5 ZFN-R half-site]	23	–
GTCATCCTCATC (double strand) [CCR5 ZFN-L half-site]	–	23
